We go through one molecule from patent publication US20140322233A1 (Takeda / Millennium, published 2014).

One assay has as its target T1, rat GCC (rat, UniProt P23897 23-429, limits assumed).
T1 construct: Construct used for the cross-reactivity test is not described
T1 sequence (looked up): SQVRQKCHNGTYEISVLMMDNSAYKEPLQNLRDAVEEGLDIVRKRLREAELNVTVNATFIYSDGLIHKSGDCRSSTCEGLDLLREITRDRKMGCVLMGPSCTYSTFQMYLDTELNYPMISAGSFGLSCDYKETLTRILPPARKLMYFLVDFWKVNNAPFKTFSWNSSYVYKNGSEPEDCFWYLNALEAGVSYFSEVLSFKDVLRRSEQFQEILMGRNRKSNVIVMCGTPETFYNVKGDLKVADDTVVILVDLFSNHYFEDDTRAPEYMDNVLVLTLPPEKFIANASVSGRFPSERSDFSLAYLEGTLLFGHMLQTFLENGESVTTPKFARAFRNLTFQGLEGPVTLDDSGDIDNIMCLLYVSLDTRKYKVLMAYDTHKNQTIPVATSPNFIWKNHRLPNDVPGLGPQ
The assay is described as follows: not described (FIG. 4: ELISA on GCC orthologs). Background: An ELISA detects its analyte on a solid surface through an enzyme-linked reagent.

The next assay deals with T2, mouse GCC (mouse, UniProt Q3UWA6 20-433, limits assumed).
T2 construct: Construct used for the cross-reactivity test is not described
T2 sequence (looked up): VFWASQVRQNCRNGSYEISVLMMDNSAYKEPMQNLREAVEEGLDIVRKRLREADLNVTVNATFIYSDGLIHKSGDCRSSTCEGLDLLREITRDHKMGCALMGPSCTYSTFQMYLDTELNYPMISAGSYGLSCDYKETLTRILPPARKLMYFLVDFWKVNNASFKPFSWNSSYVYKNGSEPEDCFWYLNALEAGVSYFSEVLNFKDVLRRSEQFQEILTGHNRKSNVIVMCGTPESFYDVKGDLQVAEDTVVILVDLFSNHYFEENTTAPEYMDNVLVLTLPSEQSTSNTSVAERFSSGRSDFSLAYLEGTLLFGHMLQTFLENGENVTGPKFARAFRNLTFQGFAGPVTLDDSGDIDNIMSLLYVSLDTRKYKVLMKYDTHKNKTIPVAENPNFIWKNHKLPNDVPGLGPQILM
The assay is described as follows: not described (FIG. 4: ELISA on GCC orthologs).

The target in assay [1] is T3, human GCC, full length with myc tag (293-GCC#2 cells) (human, UniProt P25092 24-1073).
T3 construct: not shown: myc tag
Put plainly: indirect immunofluorescence flow cytometry, 293 GCC #2 cells. (In flow cytometry, cells or beads pass a laser one at a time.)

Assay [2] addresses T3, human GCC, full length with myc tag …. Put plainly: cell-based or functional assay.
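Wherever MFI at 0.001 µg/ml is given: cells exposed to the test antibodies for 1 h on ice before flow cytometric readout.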
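Wherever MFI at 0.004 µg/ml is given: cells exposed to the test antibodies for 1 h on ice before flow cytometric readout.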
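Wherever MFI at 0.016 µg/ml is given: cells exposed to the test antibodies for 1 h on ice before flow cytometric readout.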
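Wherever MFI at 0.063 µg/ml is given: cells exposed to the test antibodies for 1 h on ice before flow cytometric readout.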

T3 sequence (P25092 24-1073): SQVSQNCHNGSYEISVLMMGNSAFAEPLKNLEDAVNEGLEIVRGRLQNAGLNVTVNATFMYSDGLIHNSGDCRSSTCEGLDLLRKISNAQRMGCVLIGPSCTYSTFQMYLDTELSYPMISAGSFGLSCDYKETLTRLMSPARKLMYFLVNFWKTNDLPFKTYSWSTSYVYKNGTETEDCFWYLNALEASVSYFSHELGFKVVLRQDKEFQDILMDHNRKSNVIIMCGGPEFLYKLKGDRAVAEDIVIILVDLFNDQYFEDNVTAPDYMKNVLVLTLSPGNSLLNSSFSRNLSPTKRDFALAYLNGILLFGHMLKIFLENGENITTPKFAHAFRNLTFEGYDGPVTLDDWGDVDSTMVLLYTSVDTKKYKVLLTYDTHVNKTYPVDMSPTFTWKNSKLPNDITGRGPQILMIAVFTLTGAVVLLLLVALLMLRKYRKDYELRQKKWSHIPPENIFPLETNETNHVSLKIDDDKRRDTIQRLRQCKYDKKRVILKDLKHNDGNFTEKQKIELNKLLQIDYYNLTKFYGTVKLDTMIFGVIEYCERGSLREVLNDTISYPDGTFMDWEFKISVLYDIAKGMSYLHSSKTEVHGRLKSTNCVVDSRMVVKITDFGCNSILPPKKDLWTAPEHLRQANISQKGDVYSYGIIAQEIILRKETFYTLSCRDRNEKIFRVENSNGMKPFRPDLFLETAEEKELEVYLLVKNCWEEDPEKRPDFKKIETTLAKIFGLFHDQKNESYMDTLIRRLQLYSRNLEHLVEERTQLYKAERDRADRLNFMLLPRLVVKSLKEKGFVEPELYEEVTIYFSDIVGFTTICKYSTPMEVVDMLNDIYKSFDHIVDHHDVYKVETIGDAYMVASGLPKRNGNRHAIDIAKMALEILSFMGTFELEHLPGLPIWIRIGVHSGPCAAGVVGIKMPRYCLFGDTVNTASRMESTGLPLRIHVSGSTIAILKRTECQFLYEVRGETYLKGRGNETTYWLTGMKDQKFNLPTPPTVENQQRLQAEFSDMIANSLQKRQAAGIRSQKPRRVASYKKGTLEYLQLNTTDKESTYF

B1: mAb 5F9 (antibody, V domains shown)
VH: QVQLQQWGAGLLKPSETLSLTCAVFGGSFSGYYWSWIRQPPGKGLEWIGEINHRGNTNDNPSLKSRVTISVDTSKNQFALKLSSVTAADTAVYYCARERGYTYGNFDHWGQGTLVTVSS
VL: EIVMTQSPATLSVSPGERATLSCRASQSVSRNLAWYQQKPGQAPRLLIYGASTRATGIPARFSGSGSGTEFTLTIGSLQSEDFAVYYCQQYKTWPRTFGQGTNVEIK
notes: Human; hybridoma product is IgG2, kappa; also called 46.5F9.8.2; Prep A 5F9
Turning to B1, the binding result with rat GCC is “no binding”. Besides, in the assay with mouse GCC, the binding result was “no binding”. Besides, in assay [1], the “MFI at 0.001 µg/ml” value was 500, the “MFI at 0.004 µg/ml” value came out at 937, the “MFI at 0.016 µg/ml” value was found to be 2460 and the “MFI at 0.063 µg/ml” value was found to be 6620. In addition, in assay [1], the “MFI at 0.25 µg/ml” value stood at 7820 and the “MFI at 1 µg/ml” value was found to be 8030. Also, the “LD50, indirect cytotoxicity with DM1-conjugated mouse anti-human IgG, 293-GCC#2 cells, WST after 4 days” value in assay [2] was determined as 26 pM.
